This is an account of results in patent US20220290165.

Where two headings read alike, the source gives them in different places.

In data set [1] the test system is pepstatin A.
Data set [2] deals with soybean trypsin inhibitor (SBTI) (UniProt P01070).
Data set [3] addresses pepstatin A. This is another data set of the same source.

Chain of UniProt P01070 (P01070 25-205): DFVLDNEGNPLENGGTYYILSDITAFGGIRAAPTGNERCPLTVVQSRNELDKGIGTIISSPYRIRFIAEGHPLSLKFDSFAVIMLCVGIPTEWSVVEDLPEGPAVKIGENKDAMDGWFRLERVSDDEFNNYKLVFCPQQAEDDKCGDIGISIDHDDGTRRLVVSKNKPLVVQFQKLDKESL

Turning to Trichoderma reesei pep4, the “casein digestion by the SIP purified fractions at pH 5.5” value in the data set with pepstatin A [1] was “a large portion of the SIP protease activity was inhibited by pepstatin A”.

For the molecule Trichoderma reesei slp2, in data set [2], the “casein digestion by the SIP purified fractions at pH 5.5” value is “The SBTI and chymostatin were able to inhibit the SLP2 protease in the purified sample”.

B1: Trichoderma reesei gap1 (protein)
chain: TVQSNWGGAILEGSGFTAASATVNVPRGGGGSNAAGSAWVGIDGASCQTAILQTGFDWYGDGTYDAWYEWYPEFAADFSGIDIRQGDQIAMSVVATSLTGGSATLENLSTGQKVTQNFNRVTAGSLCETSAEFIIEDFEECNSNGSNCQPVPFASFSPAITFSSATATRSGRSVSLSGAEITEVIVNNQDLTRCSVSGSSTLTCSYV
Regarding B1, the “casein digestion by the SIP purified fractions at pH 5.5” value with LIP peptide is “inhibited the protease activity slightly less compared to SIP inhibitor”.

B2: Trichoderma reesei pep2 (protein)
chain: MQPSFGSFLVTVLSASMAAGSVIPSTNANPGSFEIKRSANKAFTGRNGPLALARTYAKYGVEVPKTLVDAIQLVKSIQLAKRDSATVTATPDHDDIEYLVPVKIGTPPQTLNLDFDTGSSDLWVFSSDVDPTSSQGHDIYTPSKSTSSKKLEGASWNITYGDRSSSSGDVYHDIVSVGNLTVKSQAVESARNVSAQFTQGNNDGLVGLAFSSINTVKPTPQKTWYDNIVGSLDSPVFVADLRHDTPGSYHFGSIPSEASKAFYAPIDNSKGFWQFSTSSNISGQFNAVADTGTTLLLASDDLVKAYYAKVQGARVNVFLGGYVFNCTTQLPDFTFTVGEGNITVPGTLINYSEAGNGQCFGGIQPSGGLPFAIFGDIALKAAYVIFDSGNKQVGWAQKK
On to B2, for which the “casein digestion by the SIP purified fractions at pH 5.5” value in the data set with pepstatin A [3] was “a large portion of the SIP protease activity was inhibited by pepstatin A”.

B3: Trichoderma reesei pep5 (protein)
chain: MKFHAAALTLACLASSASAGVAQPRADEVESAEQGKTFSLEQIPNERYKGNIPAAYISALAKYSPTIPDKIKHAIEINPDLHRKFSKLINAGNMTGTAVASPPPGADAEYVLPVKIGTPPQTLPLNLDTGSSDLWVISTDTYPPQVQGQTRYNVSASTTAQRLIGESWVIRYGDGSSANGIVYKDRVQIGNTFFNQQAVESAVNISNEISDDSFSSGLLGAASSAANTVRPDRQTTYLENIKSQLARPVFTANLKKGKPGNYNFGYINGSEYIGPIQYAAINPSSPLWEVSVSGYRVGSNDTKYVPRVWNAIADTGTTLLLVPNDIVSAYYAQVKGSTFSNDVGMMLVPCAATLPDFAFGLGNYRGVIPGSYINYGRMNKTYCYGGIQSSEDAPFAVLGDIALKAQFVVFDMGNKVVGFANKNTNV
Regarding B3, the “casein digestion by the SIP purified fractions at pH 5.5” value with pepstatin A [3] is “a large portion of the SIP protease activity was inhibited by pepstatin A”.

B4: Trichoderma reesei pep3 (protein)
chain: MEAILQAQAKFRLDRGLQKITAVRNKNYKRHGPKSYVYLLNRFGFEPTKPGPYFQQHRIHQRGLAHPDFKAAVGGRVTRQKVLAKKVKEDGTVDAGGSKTGEVDAEDQQNDSEYLCEVTIGTPGQKLMLDFDTGSSDLWVFSTELSKHLQENHAIFDPKKSSTFKPLKDQTWQISYGDGSSASGTCGSDTVTLGGLSIKNQTIELASKLAPQFAQGTGDGLLGLAWPQINTVQTDGRPTPANTPVANMIQQDDIPSDAQLFTAAFYSERDENAESFYTFGYIDQDLVSASGQEIAWTDVDNSQGFWMFPSTKTTINGKDISQEGNTAIADTGTTLALVSDEVCEALYKAIPGAKYDDNQQGYVFPINTDASSLPELKVSVGNTQFVIQPEDLAFAPADDSNWYGGVQSRGSNPFDILGDVFLKSVYAIFDQGNQRFGAVPKIQAKQNLQPPQ
As to B4, the “casein digestion by the SIP purified fractions at pH 5.5” value with pepstatin A [3] is listed as “a large portion of the SIP protease activity was inhibited by pepstatin A”.
